Data reported in patent US20250026849A1 (ARCELLX, published 2025).
Values belong to the binder of their own block, whether it stands above or below them.

Molecular target: T1, CD123 (Homo sapiens (Human), UniProt P26951 19-305, limits assumed)
T1 construct: The CD123 construct used in the ELISA is not described; also called CD123-Signal
T1 sequence: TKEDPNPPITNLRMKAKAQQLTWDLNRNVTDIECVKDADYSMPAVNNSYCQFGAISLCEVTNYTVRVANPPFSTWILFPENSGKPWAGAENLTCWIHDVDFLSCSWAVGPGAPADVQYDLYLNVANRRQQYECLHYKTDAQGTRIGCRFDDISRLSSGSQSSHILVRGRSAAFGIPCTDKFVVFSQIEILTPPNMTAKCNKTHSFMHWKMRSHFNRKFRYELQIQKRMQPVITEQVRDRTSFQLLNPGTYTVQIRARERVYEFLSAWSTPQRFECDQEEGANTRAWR
Assay: ELISA
Set-up: unit not given here

ELISA_avg: 3.4
B1: D domain of SEQ ID NO: 589 (designed binder)
chain: MGSWREFDQRLWAIDWRLEALGGSEAELAMFEWMIATFEDDLQWYKGKGNPEVEALYREAFAIDWELDAYRHN

ELISA_avg: 5.3
B2: D domain of SEQ ID NO: 603 (designed binder)
chain: MGSWSEFVDRLDAIFDRLWALGGSEAELAWFEDTIAHFEWNLQEYKGKGNPEVEALNGEADAITDELHAYRHN

ELISA_avg: 3.8
B3: D domain of SEQ ID NO: 595 (designed binder)
chain: MGSWYEFNMRLGAIDDRLQALGGSEAELAWFEDMIAIFEDDLQIYKGKGNPEVEALEQEAAAIHQELWAYRHN

ELISA_avg: 5.9
B4: D domain of SEQ ID NO: 606 (designed binder)
chain: MGSWTEFEERLEAIWDRLYALGGSEAELAAFEWDIAYFEDGLQEYKGKGNPEVEALFMEAEAIIRELKAYRHN

ELISA_avg: 3.2
B5: D domain of SEQ ID NO: 598 (designed binder)
chain: MGSWFEFDQRLDAITFRLWALGGSEAELAEFEDVIALFEYHLQDYKGKGNPEVEALEVEAWAIFHELGAYRHN

ELISA_avg: 3.6
B6: D domain of SEQ ID NO: 597 (designed binder)
chain: MGSWYEFYERLWAIDDRLWALGGSEAELAEFEDSIATFEPSLQMYKGKGNPEVEALVAEAWAIFDELAAYRHN

ELISA_avg: 3.7
B7: D domain of SEQ ID NO: 609 (designed binder)
chain: MGSWMEFEDRLIAIWARLDALGGSEAELAWFEADIADFEESLQEYKGKGNPEVEALIFEAIAINKELMAYRHN

ELISA_avg: 6.7
B8: D domain of SEQ ID NO: 588 (designed binder)
chain: MGSWEEFDTRLLAIFGRLGALGGSEAELALFEMLIAKFEDDLQNYKGKGNPEVEALSEEAFAIDHELGAYRHN

ELISA_avg: 6.4
B9: D domain of SEQ ID NO: 593 (designed binder)
chain: MGSWVEFIMRLDAIYERLDALGGSEAELAEFEWHIADFEDHLQWYKGKGNPEVEALFEEADAIWEELWAYRHN

ELISA_avg: 3.3
B10: D domain of SEQ ID NO: 596 (designed binder)
chain: MGSWEEFHWRLGAIDARLEALGGSEAELAWFEDGIADFEAILQDYKGKGNPEVEALDSEAVAIHHELWAYRHN

ELISA_avg: 4.5
B11: D domain of SEQ ID NO: 599 (designed binder)
chain: MGSWSEFWFRLDAIEDRLWALGGSEAELAEFEDNIALFEYSLQHYKGKGNPEVEALVKEANAIDDELGAYRHN

ELISA_avg: 4.4
B12: D domain of SEQ ID NO: 600 (designed binder)
chain: MGSWYEFWDRLTAIEHRLWALGGSEAELAYFEDSIAHFEGSLQVYKGKGNPEVEALYKEAEAIEWELEAYRHN

ELISA_avg: 3.2
B13: D domain of SEQ ID NO: 611 (designed binder)
chain: MGSWYEFVSRLDAIEYRLWALGGSEAELAWFEWDIADFEQGLQFYKGKGNPEVEALAQEANAIGSELTAYRHN

ELISA_avg: 4.4
B14: D domain of SEQ ID NO: 586 (designed binder)
chain: MGSWEEFYMRLVAIHMRLRALGGSEAELAVFENYIAEFEEYLQYYKGKGNPEVEALTIEADAIGTELGAYRHN

ELISA_avg: 3.2
B15: D domain of SEQ ID NO: 602 (designed binder)
chain: MGSWNEFVERLSAIDHRLWALGGSEAELADFEQQIAEFEIHLQEYKGKGNPEVEALDFEADAIFDELLAYRHN

ELISA_avg: 4.4
B16: D domain of SEQ ID NO: 612 (designed binder)
chain: MGSWEEFDYRLYAIQDRLYALGGSEAELAFFEWEIADFEHMLQMYKGKGNPEVEALFQEADAIDAELHAYRHN

ELISA_avg: 3.6
B17: D domain of SEQ ID NO: 605 (designed binder)
chain: MGSWAEFDSRLIAIFDRLWALGGSEAELAWFEDDIAQFEQHLQAYKGKGNPEVEALRQEADAITFELKAYRHN

ELISA_avg: 3.5
B18: D domain of SEQ ID NO: 610 (designed binder)
chain: MGSWFEFTIRLEAIQDRLDALGGSEAELAWFEWDIAEFEEGLQFYKGKGNPEVEALHTEADAIMNELVAYRHN

ELISA_avg: 3.4
B19: D domain of SEQ ID NO: 582 (designed binder)
chain: MGSWSEFDQRLEAIWNRLDALGGSEAELADFEREIAYFENQLQWYKGKGNPEVEALNNEAFAIVDELGAYRHN

ELISA_avg: 3.4
B20: D domain of SEQ ID NO: 608 (designed binder)
chain: MGSWLEFESRLWAIWDRLDALGGSEAELAHFEQDIADFEMSLQEYKGKGNPEVEALIREAEAIETELYAYRHN

ELISA_avg: 4.4
B21: D domain of SEQ ID NO: 585 (designed binder)
chain: MGSWYEFESRLEAIWWRLEALGGSEAELAQFEQYIADFEQHLQWYKGKGNPEVEALDWEADAIWLELQAYRHN

ELISA_avg: 3.1
B22: D domain of SEQ ID NO: 584 (designed binder)
chain: MGSWMEFDYRLEAIWMRLIALGGSEAELADFESSIADFEHHLQSYKGKGNPEVEALEWEAFAIGVELDAYRHN

ELISA_avg: 4.7
B23: D domain of SEQ ID NO: 601 (designed binder)
chain: MGSWYEFDDRLWAIFDRLFALGGSEAELAFFEDSIAEFEEELQHYKGKGNPEVEALYLEAWAIENELGAYRHN

ELISA_avg: 3.5
B24: D domain of SEQ ID NO: 613 (designed binder)
chain: MGSWIEFFHRLDAIQDRLDALGGSEAELAYFEWAIADFEHMLQLYKGKGNPEVEALQFEAFAIEGELYAYRHN

ELISA_avg: 3.9
B25: D domain of SEQ ID NO: 592 (designed binder)
chain: MGSWTEFTQRLEAIVDRLFALGGSEAELAEFENSIADFEWDLQWYKGKGNPEVEALNREAVAIDNELWAYRHN

ELISA_avg: 3.6
B26: D domain of SEQ ID NO: 583 (designed binder)
chain: MGSWYEFDERLWAIWERLDALGGSEAELAHFEWVIADFENDLQWYKGKGNPEVEALEFEAEAIVTELHAYRHN

ELISA_avg: 6.4
B27: D domain of SEQ ID NO: 607 (designed binder)
chain: MGSWYEFEDRLAAIWDRLNALGGSEAELAIFEWDIAWFEEGLQEYKGKGNPEVEALKHEASAIQTELFAYRHN

ELISA_avg: 3.2
B28: D domain of SEQ ID NO: 594 (designed binder)
chain: MGSWNEFLLRLDAIEHRLFALGGSEAELAEFEWEIADFEDDLQWYKGKGNPEVEALVEEAEAIDVELVAYRHN

ELISA_avg: 5.2
B29: D domain of SEQ ID NO: 591 (designed binder)
chain: MGSWNEFYERLEAIDRRLFALGGSEAELALFEWMIADFEDDLQMYKGKGNPEVEALINEAGAIGFELEAYRHN

ELISA_avg: 4.3
B30: D domain of SEQ ID NO: 590 (designed binder)
chain: MGSWEEFHERLDAIDERLEALGGSEAELAFFEDDIASFEDWLQWYKGKGNPEVEALSREADAINFELEAYRHN

ELISA_avg: 3.6
B31: D domain of SEQ ID NO: 604 (designed binder)
chain: MGSWAEFDSRLDAIAQRLFALGGSEAELAHFEDFIAQFEYSLQEYKGKGNPEVEALSNEADAIFNELKAYRHN

ELISA_avg: 5.4
B32: D domain of SEQ ID NO: 587 (designed binder)
chain: MGSWDEFYYRLVAITHRLHALGGSEAELAWFEDDIAGFEWDLQTYKGKGNPEVEALYKEAGAIGMELTAYRHN
